Molecular target: the molecule itself
Experiment: cryo-EM structure; ABCB10 E659Q at ~4 mg/mL in 50 mM HEPES pH 7.5, 150 mM NaCl, 0.005% GDN, 0.0005% CHS, incubated with 1 mM biliverdin for 30 min and vitrified; BV-free (apo) and BV-bound maps from a single data set; C2 symmetry

B1: human ABCB10 (residues A152-A738) E659Q mutant (domain or fragment, UniProt Q9NRK6 152-738, looked up)
chain: AGLPEARKLLGLAYPERRRLAAAVGFLTMSSVISMSAPFFLGKIIDVIYTNPTVDYSDNLTRLCLGLSAVFLCGAAANAIRVYLMQTSGQRIVNRLRTSLFSSILRQEVAFFDKTRTGELINRLSSDTALLGRSVTENLSDGLRAGAQASVGISMMFFVSPNLATFVLSVVPPVSIIAVIYGRYLRKLTKVTQDSLAQATQLAEERIGNVRTVRAFGKEMTEIEKYASKVDHVMQLARKEAFARAGFFGATGLSGNLIVLSVLYKGGLLMGSAHMTVGELSSFLMYAFWVGISIGGLSSFYSELMKGLGAGGRLWELLEREPKLPFNEGVILNEKSFQGALEFKNVHFAYPARPEVPIFQDFSLSIPSGSVTALVGPSGSGKSTVLSLLLRLYDPASGTISLDGHDIRQLNPVWLRSKIGTVSQEPILFSCSIAENIAYGADDPSSVTAEEIQRVAEVANAVAFIRNFPQGFNTVVGEKGVLLSGGQKQRIAIARALLKNPKILLLDQATSALDAENEYLVQEALDRLMDGRTVLVIAHRLSTIKNANMVAVLDQGKITEYGKHEELLSKPNGIYRKLMNKQSFISA
notes: E659Q in the Walker-B motif; The vector adds a C-terminal TEV protease site before the FLAG and 10xHis tags; no cleavage is described; The model of ABCB10-apo covers residues 156-724 (528-532 missing), that of ABCB10-BV residues 154-724 (629-631 missing); also called ABCB10 E659Q; ABCB10-apo
stoichiometry N: 2

Source: PMC10090120, “Cryo-EM structures of mitochondrial ABC transporter ABCB10 in apo and biliverdin-bound form” (Nature Communications, 2023)
